Measured values as given in patent publication US20070041972A1 (Alexion, published 2007).

Columns and labels:
[1] = target: T1, human high affinity receptor for IgG (FcγRI) on U937 cells (human, UniProt P12314 16-374); assay: flow cytometry competition with 3.0 ng/mL biotinylated hIgG on U937 cells
T1 construct: whole, on cells; also called FcγRI receptor

[2] = target: T2, human low affinity receptor for IgG (FcγRII) on K562 cells (human, UniProt P12318 34-317); assay: flow cytometry on K562 cells, antibody complexed with FITC-rabbit Fab'2 anti-human Fab'2
T2 construct: whole, on cells
T2 sequence (looked up): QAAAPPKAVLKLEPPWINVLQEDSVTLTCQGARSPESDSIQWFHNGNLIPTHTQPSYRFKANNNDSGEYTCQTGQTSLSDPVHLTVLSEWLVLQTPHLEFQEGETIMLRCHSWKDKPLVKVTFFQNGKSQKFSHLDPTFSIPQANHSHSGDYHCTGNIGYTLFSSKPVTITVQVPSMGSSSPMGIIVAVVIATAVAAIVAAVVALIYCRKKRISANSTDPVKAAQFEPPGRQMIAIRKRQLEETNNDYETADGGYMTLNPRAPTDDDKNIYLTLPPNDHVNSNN

B1: chimeric OKT3 hG2/G4 recombinant antibody (murine OKT3 variable regions, engineered human IgG2/IgG4 heavy chain constant region, human kappa constant region) (antibody)
heavy: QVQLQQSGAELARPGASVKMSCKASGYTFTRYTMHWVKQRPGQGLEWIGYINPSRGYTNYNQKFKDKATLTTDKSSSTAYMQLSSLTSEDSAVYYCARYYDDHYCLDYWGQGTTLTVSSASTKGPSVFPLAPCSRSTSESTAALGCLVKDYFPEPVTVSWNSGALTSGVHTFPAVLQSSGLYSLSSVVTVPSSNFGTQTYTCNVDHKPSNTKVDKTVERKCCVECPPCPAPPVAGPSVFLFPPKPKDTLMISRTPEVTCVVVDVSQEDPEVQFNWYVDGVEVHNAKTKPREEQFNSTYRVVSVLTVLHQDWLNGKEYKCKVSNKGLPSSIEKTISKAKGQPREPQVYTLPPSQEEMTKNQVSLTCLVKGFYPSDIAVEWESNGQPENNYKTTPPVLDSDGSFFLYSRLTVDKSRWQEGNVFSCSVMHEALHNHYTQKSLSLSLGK
light: QIVLTQSPAIMSASPGEKVTMTCSASSSVSYMNWYQQKSGTSPKRWIYDTSKLASGVPAHFRGSGSGTSYSLTISGMEAEDAATYYCQQWSSNPFTFGSGTKLEIKRTVAAPSVFIFPPSDEQLKSGTASVVCLLNNFYPREAKVQWKVDNALQSGNSQESVTEQDSKDSTYSLSSTLTLSKADYEKHKVYACEVTHQGLSSPVTKSFNRGEC
notes: Made in two expression systems; also called chimeric antibody containing an engineered IgG2/IgG4 human constant region
B1: no binding [1]; no binding [2].
